Results reported in article doi:10.1101/400432, “The deadly touch: protein denaturation at the water-air interface and how to prevent it” (bioRxiv, 2018).

Columns and labels:
[1] = biological target: the molecule itself; assay: cryo-EM structure; single-particle cryo-EM of purified FAS complex (0.2 mg/ml) on Quantifoil R0.6/1 grids coated with graphene hydrophilized with 1-pyrCA; about 28,000 particles; maps at 4.8 Å (C1) and 4.0 Å (D3)
[2] = biological target: T1, fatty acid synthase subunit encoded by FAS1, twinStrep-II tagged (Saccharomyces cerevisiae) (S. cerevisiae, UniProt P07149 1-2051); assay: as above; conditions: both partners purified
T1 construct: Fatty acid synthase subunit encoded by the FAS1 gene, S. cerevisiae; expressed from plasmid pMF639 (pRS315_FAS1-twinStrep-II); also called strep-tagged FAS; beta (beta-domes)
T1 sequence (P07149 whole entry): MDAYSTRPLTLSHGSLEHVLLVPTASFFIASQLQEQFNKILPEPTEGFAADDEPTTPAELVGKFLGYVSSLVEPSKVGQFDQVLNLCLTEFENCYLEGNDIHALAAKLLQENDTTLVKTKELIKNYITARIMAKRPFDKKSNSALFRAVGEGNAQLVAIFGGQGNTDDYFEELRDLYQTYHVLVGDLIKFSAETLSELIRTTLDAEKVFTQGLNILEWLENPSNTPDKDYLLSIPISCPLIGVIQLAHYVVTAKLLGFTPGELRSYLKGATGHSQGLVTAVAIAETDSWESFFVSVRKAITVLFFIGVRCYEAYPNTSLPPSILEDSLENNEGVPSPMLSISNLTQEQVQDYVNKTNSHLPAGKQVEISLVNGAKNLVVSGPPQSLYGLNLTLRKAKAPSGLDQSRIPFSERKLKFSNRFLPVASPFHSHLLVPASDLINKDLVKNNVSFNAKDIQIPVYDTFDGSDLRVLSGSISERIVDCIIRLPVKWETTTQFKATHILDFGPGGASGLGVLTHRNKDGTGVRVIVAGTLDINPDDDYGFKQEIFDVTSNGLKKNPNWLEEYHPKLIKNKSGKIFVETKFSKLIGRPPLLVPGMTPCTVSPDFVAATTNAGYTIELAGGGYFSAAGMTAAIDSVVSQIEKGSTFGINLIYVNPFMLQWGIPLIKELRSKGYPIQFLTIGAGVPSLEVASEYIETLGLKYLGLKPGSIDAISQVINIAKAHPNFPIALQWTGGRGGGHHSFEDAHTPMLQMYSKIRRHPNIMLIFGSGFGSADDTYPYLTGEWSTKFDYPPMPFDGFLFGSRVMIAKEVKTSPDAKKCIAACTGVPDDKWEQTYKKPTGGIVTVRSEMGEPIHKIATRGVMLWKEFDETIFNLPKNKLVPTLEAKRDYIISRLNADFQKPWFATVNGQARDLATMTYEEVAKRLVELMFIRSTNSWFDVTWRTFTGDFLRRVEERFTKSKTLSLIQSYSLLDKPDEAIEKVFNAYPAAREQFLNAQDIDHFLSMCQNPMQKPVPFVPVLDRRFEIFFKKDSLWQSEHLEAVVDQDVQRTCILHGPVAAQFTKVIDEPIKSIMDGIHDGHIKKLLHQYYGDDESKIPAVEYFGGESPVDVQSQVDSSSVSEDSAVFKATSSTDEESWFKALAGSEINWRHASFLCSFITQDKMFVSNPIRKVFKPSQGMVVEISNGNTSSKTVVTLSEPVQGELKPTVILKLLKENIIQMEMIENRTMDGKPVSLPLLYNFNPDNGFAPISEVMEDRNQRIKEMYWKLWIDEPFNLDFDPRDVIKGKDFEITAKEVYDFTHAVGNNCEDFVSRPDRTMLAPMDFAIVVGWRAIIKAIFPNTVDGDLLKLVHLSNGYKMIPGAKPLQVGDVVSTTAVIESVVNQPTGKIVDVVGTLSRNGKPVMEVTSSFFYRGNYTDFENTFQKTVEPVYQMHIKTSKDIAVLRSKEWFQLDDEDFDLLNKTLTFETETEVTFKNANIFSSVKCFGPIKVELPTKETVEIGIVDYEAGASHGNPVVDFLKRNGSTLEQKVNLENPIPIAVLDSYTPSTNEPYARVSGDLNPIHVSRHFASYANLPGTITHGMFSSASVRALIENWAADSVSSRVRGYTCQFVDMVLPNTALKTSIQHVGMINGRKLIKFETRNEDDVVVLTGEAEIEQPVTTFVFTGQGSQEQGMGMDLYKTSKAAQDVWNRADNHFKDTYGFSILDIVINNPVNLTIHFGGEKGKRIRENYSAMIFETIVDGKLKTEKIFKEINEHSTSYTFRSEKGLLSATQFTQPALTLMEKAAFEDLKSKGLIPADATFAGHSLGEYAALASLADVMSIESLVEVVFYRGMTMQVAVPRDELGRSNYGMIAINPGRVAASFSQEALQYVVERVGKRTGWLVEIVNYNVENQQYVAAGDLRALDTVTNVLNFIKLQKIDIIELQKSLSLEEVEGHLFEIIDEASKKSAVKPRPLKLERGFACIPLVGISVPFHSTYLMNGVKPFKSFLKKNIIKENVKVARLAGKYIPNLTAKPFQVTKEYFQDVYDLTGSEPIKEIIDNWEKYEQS

B1: fatty acid synthase subunit encoded by FAS2 (Saccharomyces cerevisiae) (enzyme, S. cerevisiae, UniProt P19097 1-1887, looked up)
chain: MKPEVEQELAHILLTELLAYQFASPVRWIETQDVFLKDFNTERVVEIGPSPTLAGMAQRTLKNKYESYDAALSLHREILCYSKDAKEIYYTPDPSELAAKEEPAKEEAPAPTPAASAPAPAAAAPAPVAAAAPAAAAAEIADEPVKASLLLHVLVAHKLKKSLDSIPMSKTIKDLVGGKSTVQNEILGDLGKEFGTTPEKPEETPLEELAETFQDTFSGALGKQSSSLLSRLISSKMPGGFTITVARKYLQTRWGLPSGRQDGVLLVALSNEPAARLGSEADAKAFLDSMAQKYASIVGVDLSSAASASGAAGAGAAAGAAMIDAGALEEITKDHKVLARQQLQVLARYLKMDLDNGERKFLKEKDTVAELQAQLDYLNAELGEFFVNGVATSFSRKKARTFDSSWNWAKQSLLSLYFEIIHGVLKNVDREVVSEAINIMNRSNDALIKFMEYHISNTDETKGENYQLVKTLGEQLIENCKQVLDVDPVYKDVAKPTGPKTAIDKNGNITYSEEPREKVRKLSQYVQEMALGGPITKESQPTIEEDLTRVYKAISAQADKQDISSSTRVEFEKLYSDLMKFLESSKEIDPSQTTQLAGMDVEDALDKDSTKEVASLPNKSTISKTVSSTIPRETIPFLHLRKKTPAGDWKYDRQLSSLFLDGLEKAAFNGVTFKDKYVLITGAGKGSIGAEVLQGLLQGGAKVVVTTSRFSKQVTDYYQSIYAKYGAKGSTLIVVPFNQGSKQDVEALIEFIYDTEKNGGLGWDLDAIIPFAAIPEQGIELEHIDSKSEFAHRIMLTNILRMMGCVKKQKSARGIETRPAQVILPMSPNHGTFGGDGMYSESKLSLETLFNRWHSESWANQLTVCGAIIGWTRGTGLMSANNIIAEGIEKMGVRTFSQKEMAFNLLGLLTPEVVELCQKSPVMADLNGGLQFVPELKEFTAKLRKELVETSEVRKAVSIETALEHKVVNGNSADAAYAQVEIQPRANIQLDFPELKPYKQVKQIAPAELEGLLDLERVIVVTGFAEVGPWGSARTRWEMEAFGEFSLEGCVEMAWIMGFISYHNGNLKGRPYTGWVDSKTKEPVDDKDVKAKYETSILEHSGIRLIEPELFNGYNPEKKEMIQEVIVEEDLEPFEASKETAEQFKHQHGDKVDIFEIPETGEYSVKLLKGATLYIPKALRFDRLVAGQIPTGWNAKTYGISDDIISQVDPITLFVLVSVVEAFIASGITDPYEMYKYVHVSEVGNCSGSGMGGVSALRGMFKDRFKDEPVQNDILQESFINTMSAWVNMLLISSSGPIKTPVGACATSVESVDIGVETILSGKARICIVGGYDDFQEEGSFEFGNMKATSNTLEEFEHGRTPAEMSRPATTTRNGFMEAQGAGIQIIMQADLALKMGVPIYGIVAMAATATDKIGRSVPAPGKGILTTAREHHSSVKYASPNLNMKYRKRQLVTREAQIKDWVENELEALKLEAEEIPSEDQNEFLLERTREIHNEAESQLRAAQQQWGNDFYKRDPRIAPLRGALATYGLTIDDLGVASFHGTSTKANDKNESATINEMMKHLGRSEGNPVIGVFQKFLTGHPKGAAGAWMMNGALQILNSGIIPGNRNADNVDKILEQFEYVLYPSKTLKTDGVRAVSITSFGFGQKGGQAIVVHPDYLYGAITEDRYNEYVAKVSAREKSAYKFFHNGMIYNKLFVSKEHAPYTDELEEDVYLDPLARVSKDKKSGSLTFNSKNIQSKDSYINANTIETAKMIENMTKEKVSNGGVGVDVELITSINVENDTFIERNFTPQEIEYCSAQPSVQSSFAGTWSAKEAVFKSLGVKSLGGGAALKDIEIVRVNKNAPAVELHGNAKKAAEEAGVTDVKVSISHDDLQAVAVAVSTKK
notes: Fatty acid synthase subunit encoded by the FAS2 gene, S. cerevisiae; expressed from plasmid pMF319d (pRS313_FAS2); also called alpha (alpha wheel)
B1: binds [1]; binds [2].
